# From US20100310463A1 (AFFITECH RESEARCH, published 2010)
# Legend:
# human EpCAM-Fc [1] = biological target: T1, human EpCAM-Fc (human, UniProt P16422 24-265); assay: ELISA, plate coated with human EpCAM-Fc at 5 µg/ml, scFv detected with mouse anti-cMyc 9E10 and rabbit anti-mouse-HRP, TMB, Abs 450 nm
# T1 construct: extracellular domain; also called human EpCAM/Fc fusion; recombinant human EpCAM antigen; not shown: human Fc region from IgG1; limits not readable
# T1 sequence (looked up): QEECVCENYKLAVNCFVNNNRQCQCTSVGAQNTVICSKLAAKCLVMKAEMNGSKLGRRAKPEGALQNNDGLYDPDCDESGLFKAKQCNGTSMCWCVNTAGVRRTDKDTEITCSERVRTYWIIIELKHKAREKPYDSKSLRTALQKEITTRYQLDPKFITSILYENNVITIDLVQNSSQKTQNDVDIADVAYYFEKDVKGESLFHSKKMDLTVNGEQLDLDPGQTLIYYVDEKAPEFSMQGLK
# Method: FIGS. 10A and 10B show ELISA binding analysis of 3-17I scFv, 7-F17 scFv, 17-C20 scFv and 24-G6 scFv to human EpCAM-Fc (FIG. 10A) and to cynomolgus EpCAM-Fc (FIG. 10B). MAXI-Sorb plates were coated with human or cynomolgus EpCAM-Fc at a concentration of 5 μg/ml. The antibody was added in 2-fold dilutions from 667 nM to 3.2 nM.
# For ELISA of antibodies in scFv format, the MAXI-sorb plate was coated with 5 μg/ml (100 μl per well) of human or cynomolgus EpCAM-Fc in PBS overnight at 4° C. The plates were blocked with 4% skimmed milk (Merck product no 1.15363.0500) in PBS for 2 hrs. […] For detection of bound scFv, a rabbit anti-mouse-HRP antibody (Dako, cat no P0260) was added in 1:3000 dilution in block solution and incubated for 1 hr at room temperature.
# human EpCAM-Fc [2] = biological target: T1, human EpCAM-Fc; assay: ELISA, plate coated with human EpCAM-Fc at 1 µg/ml, goat anti-human kappa-HRP, ABTS, Abs 405 nm
# Method: (§1) For ELISA of antibodies in IgG format, the MAXI-sorb plate was coated with 1 μg/ml (100 μl per well) of human or cynomolgus EpCAM-Fc in PBS overnight at 4° C. The plates were blocked with 3% BSA in PBS for 2 hrs. The IgGs to be tested were added in 2-fold dilutions from 133 nM to 32 fM and incubated for 1 hr at room temperature. For detection of bound IgG, a goat anti-human kappa-HRP antibody (Southern Biotech, cat no 2060-05) was added in 1:5000 dilution in block solution and incubated for 1 hr at room temperature.
# (§2) The ELISA of antibodies in IgG format was developed using a 1-step ABTS Kit (Thermo Scientific prod #37615) and a 25 min incubation time. The absorbance was measured on a SLT SPECTRA plate reader. The software Prism (GraphPad, San Diego, Calif.) was used to estimate the affinities using a non-linear fit of one-site model on the retrieved ELISA data.
# [3] = biological target: T2, EpCAM on the surface of EpCAM-positive tumor cell lines (UniProt P16422 24-314, limits assumed); assay: cell-based or functional assay
# T2 sequence (looked up): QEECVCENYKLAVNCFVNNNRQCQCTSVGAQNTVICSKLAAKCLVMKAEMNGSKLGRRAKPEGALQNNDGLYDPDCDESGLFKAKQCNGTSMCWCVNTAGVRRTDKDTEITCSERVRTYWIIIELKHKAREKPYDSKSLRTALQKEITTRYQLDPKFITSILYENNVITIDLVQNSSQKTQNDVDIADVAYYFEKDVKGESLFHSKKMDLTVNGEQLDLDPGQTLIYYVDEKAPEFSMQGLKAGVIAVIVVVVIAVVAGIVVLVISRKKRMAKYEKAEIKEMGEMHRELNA
# [4] = biological target: T2, EpCAM on the surface of EpCAM-positive …; assay: flow cytometry on Kato III cells, RPE goat anti-human IgG detection, median fluorescence intensity
# Method: Flow cytometric analysis was performed to analyze binding of the 3-17I IgG to EpCAM-positive cells. As positive controls, anti-EpCAM chimeric (mouse variable/human constant domains) and fully human antibodies, MOC31 and MT201, respectively, were used.
# The anti-green fluorescent protein (GFP) antibody was used as a negative control. For flow cytometry, Kato III cells (ATCC number (gastric carcinoma, ATCC number HTB-103)) were grown under standard conditions, harvested from the culture flasks, washed 2 times with PBS, re-suspended in PBS with 0.2% BSA and 0.09% NaN₃ and finally distributed at 1×10⁵ cells per well into V-shaped 96-well plates (Greiner Bio-One, Frickenhausen, Germany). Cells were centrifuged at 400×g for 5 min and then incubated at 4° C. for 45 min with 50 μL of each different antibody dilution (all dilutions made in PBS with 0.2% BSA and 0.09% NaN₃). After washing in PBS with 0.2% BSA and 0.09% NaN₃, the cells were stained with 10 μg/mL of RPE-conjugated goat anti-human IgG (AbDSerotec, Düsseldorf, Germany) for 30 min at 4° C. The stained cells were washed, re-suspended in 200 μL PBS with 0.2% BSA and 0.09% NaN₃ and transferred to a U-shaped 96-well plate (Corning, Schiphol-Rijk, The Netherlands) for analysis on EasyCyte flow cytometer (Guava Technologies, Hayward, Calif., USA).
# cynomolgus EpCAM-Fc = biological target: T3, cynomolgus EpCAM-Fc (cynomolgus; human, UniProt P01857 99-330 = IgG part); assay: ELISA, plate coated with cynomolgus EpCAM-Fc at 1 µg/ml, goat anti-human kappa-HRP, ABTS, Abs 405 nm
# T3 construct: also called Cynomolgus EpCAM/Fc fusion; recombinant cynomolgus EpCAM antigen
# T3 sequence (P01857 other isoform, or with tags, fused parts or gaps limits assumed, form in doubt): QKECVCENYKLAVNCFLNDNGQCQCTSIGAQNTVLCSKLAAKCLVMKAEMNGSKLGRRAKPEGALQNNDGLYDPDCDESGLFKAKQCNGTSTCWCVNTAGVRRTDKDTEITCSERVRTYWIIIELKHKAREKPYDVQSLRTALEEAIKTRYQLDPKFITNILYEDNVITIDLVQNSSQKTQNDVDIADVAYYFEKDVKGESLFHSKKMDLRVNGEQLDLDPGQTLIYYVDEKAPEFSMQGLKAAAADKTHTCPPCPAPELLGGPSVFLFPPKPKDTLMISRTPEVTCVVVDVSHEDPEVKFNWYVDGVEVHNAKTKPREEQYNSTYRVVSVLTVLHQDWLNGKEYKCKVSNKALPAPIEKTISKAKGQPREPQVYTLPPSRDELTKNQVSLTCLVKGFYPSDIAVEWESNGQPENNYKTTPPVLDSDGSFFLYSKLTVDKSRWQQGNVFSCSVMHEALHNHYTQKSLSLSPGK
# Method: as §1, §2
# human EpCAM-Fc [5] = biological target: T1, human EpCAM-Fc; assay: SPR, BIAcore T100, EpCAM-Fc coupled to CM5 chip (100 RU), 37 °C, 1:1 Langmuir model; SPR (BIAcore T100), 37 C, native EpCAM-Fc on the CM5 chip
# Method: Binding of 3-17I to human and cynomolgus monkey EpCAM was analyzed using surface plasmon resonance (SPR) on a BIAcore T100 (BIAcore, Inc, Piscataway, N.J.). The extracellular domains of human or cynomolgus monkey EpCAM fused to human Fc (IgG1), were coupled to a CM5 chip (BIAcore, Inc, Piscataway, N.J.) at density of 100 RU. The SPR studies were performed using standard techniques at 37° C. with a flow rate of 50 μl/min. The data were analyzed using the 1:1 Langmuir binding model of the BIAcore software.
binder,measurement,setting,value
7-F17 scFv (scFv) scFv: QVQLVQSGAEVKKPGSSVKVSCKASGGTFSSYAISWVRQAPGQGLEWMGGIIPIFGTANYAQKFQGRVTITADESTSTAYMELSSLRSEDTAVYYCARGLLWNYWGQGTLVTVSSKLSGSASAPKLEEGEFSEARVETTLTQSPATLSVSPGERATLSCRASQSVSSNLAWYQQKPGQAPRLLIYGASTRATGIPARFSGSGSGTEFTLTISSLQSEDFAVYYCQQYNNWPPGFTFGPGTKVDIK,binding result,human EpCAM-Fc [1],binds
24-G6 scFv (scFv) scFv: QVQLVQSGAEVKKPGSSVKVSCKASGGTFSSYAISWVRQAPGQGLEWMGGIIPIFGTANYAQKFQGRVTITADESTSTAYMELSSLRSEDTAVYYCARGLLWNYWGQGTLVTVSSKLSGSASAPKLEEGEFSEARVETTLTQSPATLSVSPGERATLSCRASQSVSSNLAWYQQKPGQAPRLLIYGASTRATGIPARFSGSGSGTEFTLTISSLQSEDFAVYYCQKYNNWPPAFTFGPGTKVDIK,binding result,human EpCAM-Fc [1],binds
17-C20 scFv (scFv) scFv: QVQLVQSGAEVKKPGSSVKVSCKASGGTFSSYAISWVRQAPGQGLEWMGGIIPIFGTANYAQKFQGRVTITADESTSTAYMELSSLRSEDTAVYYCARGLLWNYWGQGTLVTVSSKLSGSASAPKLEEGEFSEARVETTLTQSPATLSVSPGERATLSCRASQSVSSNLAWYQQKPGQAPRLLIYGASTRATGIPARFSGSGSGTEFTLTISSLQSEDFAVYYCQQYNNWPPMYTFGQGTKVEIK,binding result,human EpCAM-Fc [1],binds
"3-17I scFv (scFv, expressed in E. coli TG1 from pHOG21; also called scFv format of 3-17I; not shown: C-terminal c-myc and His6 tags from pHOG21, with their junction residues) scFv: QVQLVQSGAEVKKPGSSVKVSCKASGGTFSSYAISWVRQAPGQGLEWMGGIIPIFGTANYAQKFQGRVTITADESTSTAYMELSSLRSEDTAVYYCARGLLWNYWGQGTLVTVSSKLSGSASAPKLEEGEFSEARVEIVMTQSPATLSVSPGERATLSCRASQSVSSNLAWYQQKPGQAPRLIIYGASTTASGIPARFSASGSGTDFTLTISSLQSEDFAVYYCQQYNNWPPAYTFGQGTKLEIK",binding result,human EpCAM-Fc [1],binds
"17-C20 IgG (antibody, V domains shown, also called 17-C20 full length IgG) VH: QVQLVQSGAEVKKPGSSVKVSCKASGGTFSSYAISWVRQAPGQGLEWMGGIIPIFGTANYAQKFQGRVTITADESTSTAYMELSSLRSEDTAVYYCARGLLWNYWGQGTLVTVSS VL: not shown",binding result,human EpCAM-Fc [2],binds
"16-G5 IgG (antibody, V domains shown, also called 16-G5 full length IgG) VH: QVQLVQSGAEVKKPGSSVKVSCKASGGTFSSYAISWVRQAPGQGLEWMGGIIPIFGTANYAQKFQGRVTITADESTSTAYMELSSLRSEDTAVYYCARGLLWNYWGQGTLVTVSS VL: not shown",binding result,human EpCAM-Fc [2],binds
"3-17I IgG (antibody, V domains shown, also called 3-17I full length IgG) VH: QVQLVQSGAEVKKPGSSVKVSCKASGGTFSSYAISWVRQAPGQGLEWMGGIIPIFGTANYAQKFQGRVTITADESTSTAYMELSSLRSEDTAVYYCARGLLWNYWGQGTLVTVSS VL: EIVMTQSPATLSVSPGERATLSCRASQSVSSNLAWYQQKPGQAPRLIIYGASTTASGIPARFSASGSGTDFTLTISSLQSEDFAVYYCQQYNNWPPAYTFGQGTKLEIKR","ADCC EC50, BT-474 cells, human PBMC, E:T 20:1",[3],0.12 ng/mL
same,"ADCC EC50, MDA-MB-231 cells, human PBMC, E:T 20:1",[3],15 ng/mL
same,"ADCC EC50, MDA-MB-453 cells, human PBMC, E:T 20:1",[3],0.08 ng/mL
same,"CDC EC50, KATO III cells, human serum",[3],0.28 ng/mL
same,"CDC EC50, MT-3 cells, human serum",[3],0.38 ng/mL
same,EC50 (read off the curve),human EpCAM-Fc [2],~0.7 nM
same,EC50 (read off the curve),[4],~100 ng/mL
same,EC50 (read off the curve),cynomolgus EpCAM-Fc,~0.6 nM
same,Kd,human EpCAM-Fc [5],1 nM
same,koff,human EpCAM-Fc [5],0.03 s⁻¹
same,kon,human EpCAM-Fc [5],3e+07 M⁻¹ s⁻¹
"12-C15 IgG (antibody, V domains shown, also called 12-C15 full length IgG) VH: QVQLVQSGAEVKKPGSSVKVSCKASGGTFSSYAISWVRQAPGQGLEWMGGIIPIFGTANYAQKFQGRVTITADESTSTAYMELSSLRSEDTAVYYCARGLLWNYWGQGTLVTVSS VL: not shown",binding result,human EpCAM-Fc [2],binds
"MOC31 IgG (antibody, V domains shown) VH: QVKLQQSGPELKKPGETVKISCKASGYTFTNYGMNWVKQAPGKGLKWMGWINTYTGESTYADDFKGRFAFSLETSASAAYLQINNLKNEDTATYFCARFAIKGDYWGQGTTVTVSS VL: DIVLTQSPFSNPVTLGTSASISCRSTKSLLHSNGITYLYWYLQKPGQSPQLLIYQMSNLASGVPDRFSSSGSGTDFTLRISRVEAEDVGVYYCAQNLEIPRTFGGGTKLEIK",EC50 (read off the curve),human EpCAM-Fc [2],~1 nM
same,EC50 (read off the curve),[4],~300 ng/mL
"MT201 IgG (antibody, V domains shown) VH: EVQLLESGGGVVQPGRSLRLSCAASGFTFSSYGMHWVRQAPGKGLEWVAVISYDGSNKYYADSVKGRFTISRDNSKNTLYLQMNSLRAEDTAVYYCAKDMGWGSGWRPYYYYGMDVWGQGTTVTVSS VL: ELQMTQSPSSLSASVGDRVTITCRTSQSISSYLNWYQQKPGQPPKLLIYWASTRESGVPDRFSGSGSGTDFTLTISSLQPEDSATYYCQQSYDIPYTFGQGTKLEIK","ADCC EC50, BT-474 cells, human PBMC, E:T 20:1",[3],382 ng/mL
same,"ADCC EC50, MDA-MB-453 cells, human PBMC, E:T 20:1",[3],7 ng/mL
same,"CDC EC50, KATO III cells, human serum",[3],76 ng/mL
same,"CDC EC50, MT-3 cells, human serum",[3],89 ng/mL
same,"CDC: fold higher antibody concentration needed than for 3-17I IgG (ratio of the EC50 values; KATO III and MT-3 cells, human serum)",[3],250 fold
